{"source": "patent US20220160939A1", "about": "“SELF-ASSEMBLING PEPTIDES AS BRONCHIAL OBSTRUCTION AGENTS” (3-D MATRIX, LTD., priority 2014, published 2022)", "format_in_all_cases": "physicochemical", "key": {"[1]": {"assay": "Gelation of peptide solutions after saline buffer treatment, time sweep test", "details": "saline buffer (0.15 M of NaCl), no pH change; IEIK13 1.5%, KLD12 1.5%, PuraMatrix 2.5%", "experimental": "The effect of salt ionic strength level surrounding peptides in solution on the properties of peptide solutions was evaluated to identify the possibility of peptide gelation when the peptide solution is placed into the environment where salt ionic strength level is high. […] Without pH effect, the effect of saline treatment on gelation of peptide solutions were evaluated. […] This is because IEIK13 (SEQ ID NO:2) is much more sensitive to salt ionic strength levels. Fast gelation of IEIK13 (SEQ ID NO:2) at the salt ionic strength level similar to body fluid isotonic salt level may generally improve its function and gelation speed for various clinical applications. The results are shown in FIG. 19 for IEIK13 (SEQ ID NO:2), KLD12 (SEQ ID NO:3) and PuraMatrix® (SEQ ID NO:1) solutions. Time sweep tests were performed at 1 rad/sec and at 1 Pa with 20 mm plates and 500 μm gap distance. […]"}, "[2]": {"assay": "pH and appearance of 2.5% peptide solutions after adding 0.1 N NaOH", "experimental": "To adjust the pH level of the peptide solutions by way of example, 0.1 N NaOH was added to 2 mL of 2.5% peptide solutions and their pH and appearance were measured."}, "[3]": {"assay": "Salt ionic strength plus pH adjustment: appearance and rheological properties", "details": "0.9% NaCl (ionic strength: 0.15 M) at pH 3.4 adjusted with NaOH", "from_the_text": "In accordance with one or more embodiments, IEIK13 (SEQ ID NO:2), KLD12 (SEQ ID NO:3), and PuraMatrix® (SEQ ID NO:1) may be dissolved both in salt buffer such as NaCl and at an elevated pH level adjusted with alkali salt buffer such as NaOH to keep their salt ionic strength under their critical salt points as well as their pH level to about 2.5˜4.0, so that they may have stiffer properties. With respect to PuraMatrix® (SEQ ID NO:1), […] and IEIK13 (SEQ ID NO:2), the peptide solutions are still clear with 0.9% NaCl (ionic strength: 0.15 M) at pH 3.4 adjusted with NaOH. The rheological property of PuraMatrix® (SEQ ID NO:1) with 0.9% NaCl (ionic strength: 0.15 M) at pH 3.4 was stiffer than those of PuraMatrix® (SEQ ID NO:1) control and PuraMatrix® (SEQ ID NO:1) with only NaCl 0.9%. The effect of salt ionic strength and pH adjustment on the rheological properties of PuraMatrix® (SEQ ID NO:1) 2.5% solution are shown in FIG. 20. Frequency sweep tests were performed from 1 rad/sec to 10 rad/sec at 1 Pa and the storage modulus at 1 rad/sec was selected for data."}, "[4]": {"assay": "Appearance of 1.5% peptide solutions with various salts at room temperature", "details": "for Appearance: room temperature", "experimental": "The effect of salt ionic strength level on the properties of peptide solutions was evaluated to identify optimized salt ionic strength levels for the peptides as described herein. Increasing the salt ionic strength level of PuraMatrix® (SEQ ID NO:1) and other peptides may generally improve its function and mechanical strength for various clinical applications. To adjust the salt ionic strength of the peptide solutions by way of example, various salt buffer solutions including NaCl, KCl, MgCl2, CaCl2 and DPBS (10×) were added to 2 mL of 1.5% peptide solutions."}}, "data": [{"substance": "Ile-Glu-Ile-Lys-Ile-Glu-Ile-Lys-Ile-Glu-Ile-Lys-Ile [IEIK13]", "values": [{"measurement": "gelation after saline buffer treatment", "setting": "[1]", "value": "fast gelation"}, {"measurement": "Appearance", "setting": "[2]; 0.1N NaOH 150 μL/mL added in 2.5% solution, conc. 2.17%", "value": "Clear, thick gel, stiffer gel"}, {"measurement": "Appearance", "setting": "[2]; 0.1N NaOH 200 μL/mL added in 2.5% solution, conc. 2.08%", "value": "Clear, thick gel, stiffer gel"}, {"measurement": "Appearance", "setting": "[2]; 0.1N NaOH 250 μL/mL added in 2.5% solution, conc. 2.0%", "value": "Clear, thick gel, stiffer gel"}, {"measurement": "Appearance", "setting": "[2]; 0.1N NaOH 275 μL/mL added in 2.5% solution, conc. 1.96%", "value": "Clear, thick, stiffer gel"}, {"measurement": "Appearance", "setting": "[2]; 0.1N NaOH 300 μL/mL added in 2.5% solution, conc. 1.92%", "value": "Slightly cloudy, brittle gel"}, {"measurement": "Appearance", "setting": "[2]; 0.1N NaOH 400 μL/mL added in 2.5% solution, conc. 1.79%", "value": "Cloudy, phase-separated"}, {"measurement": "Peptide solution pH", "setting": "[2]; NaOH volume and conc. not given", "value": 7.0}, {"measurement": "Appearance", "setting": "[2]; peptide solution pH 7.0, NaOH volume and conc. not given", "value": "Cloudy, phase-separated"}, {"measurement": "appearance of peptide solutions", "setting": "[3]", "value": "still clear"}, {"measurement": "critical salt ionic strengths at which peptides become cloudy", "setting": "[4]", "value": "0.03˜0.04 M"}, {"measurement": "Appearance", "setting": "[4]; CaCl2 0 M, ionic strength 0 M, conc. 1.5%", "value": "Clear, thick gel"}, {"measurement": "Appearance", "setting": "[4]; CaCl2 0.005 M, ionic strength 0.015 M, conc. 1.46%", "value": "Clear, thick, stiffer gel"}, {"measurement": "Appearance", "setting": "[4]; CaCl2 0.0067 M, ionic strength 0.02 M, conc. 1.45%", "value": "Clear, thick, stiffer gel"}, {"measurement": "Appearance", "setting": "[4]; CaCl2 0.0083 M, ionic strength 0.025 M, conc. 1.44%", "value": "Clear, thick, stiffer gel"}, {"measurement": "Appearance", "setting": "[4]; CaCl2 0.01 M, ionic strength 0.03 M, conc. 1.43%", "value": "Clear, thick, stiffer gel"}, {"measurement": "Appearance", "setting": "[4]; CaCl2 0.0117 M, ionic strength 0.035 M, conc. 1.41%", "value": "Clear, thick, stiffer gel"}, {"measurement": "Appearance", "setting": "[4]; CaCl2 0.0133 M, ionic strength 0.04 M, conc. 1.40%", "value": "Slightly cloudy, thick, stiffer gel"}, {"measurement": "Appearance", "setting": "[4]; CaCl2 0.015 M, ionic strength 0.045 M, conc. 1.39%", "value": "Slightly cloudy, thick, stiffer gel"}, {"measurement": "Appearance", "setting": "[4]; CaCl2 0.0167 M, ionic strength 0.05 M, conc. 1.37%", "value": "Slightly cloudy, brittle gel"}, {"measurement": "Appearance", "setting": "[4]; CaCl2 0.0183 M, ionic strength 0.055 M, conc. 1.36%", "value": "Cloudy, phase-separated"}, {"measurement": "Appearance", "setting": "[4]; KCl 0 M, ionic strength 0 M, conc. 1.5%", "value": "Clear, thick gel"}, {"measurement": "Appearance", "setting": "[4]; KCl 0.005 M, ionic strength 0.005 M, conc. 1.46%", "value": "Clear, thick, stiffer gel"}, {"measurement": "Appearance", "setting": "[4]; KCl 0.01 M, ionic strength 0.01 M, conc. 1.43%", "value": "Clear, thick, stiffer gel"}, {"measurement": "Appearance", "setting": "[4]; KCl 0.015 M, ionic strength 0.015 M, conc. 1.39%", "value": "Clear, thick, stiffer gel"}, {"measurement": "Appearance", "setting": "[4]; KCl 0.02 M, ionic strength 0.02 M, conc. 1.35%", "value": "Clear, thick, stiffer gel"}, {"measurement": "Appearance", "setting": "[4]; KCl 0.025 M, ionic strength 0.025 M, conc. 1.31%", "value": "Clear, thick, stiffer gel"}, {"measurement": "Appearance", "setting": "[4]; KCl 0.03 M, ionic strength 0.03 M, conc. 1.27%", "value": "Clear, thick, stiffer gel"}, {"measurement": "Appearance", "setting": "[4]; KCl 0.035 M, ionic strength 0.035 M, conc. 1.24%", "value": "Slightly cloudy, brittle gel"}, {"measurement": "Appearance", "setting": "[4]; KCl 0.04 M, ionic strength 0.04 M, conc. 1.2%", "value": "Slightly cloudy, brittle"}, {"measurement": "Appearance", "setting": "[4]; KCl 0.045 M, ionic strength 0.045 M, conc. 1.16%", "value": "Cloudy, phase-separated"}, {"measurement": "Appearance", "setting": "[4]; MgCl2 0 M, ionic strength 0 M, conc. 1.5%", "value": "Clear, thick gel"}, {"measurement": "Appearance", "setting": "[4]; MgCl2 0.005 M, ionic strength 0.015 M, conc. 1.46%", "value": "Clear, thick, stiffer gel"}, {"measurement": "Appearance", "setting": "[4]; MgCl2 0.0067 M, ionic strength 0.02 M, conc. 1.45%", "value": "Clear, thick, stiffer gel"}, {"measurement": "Appearance", "setting": "[4]; MgCl2 0.0083 M, ionic strength 0.025 M, conc. 1.44%", "value": "Clear, thick, stiffer gel"}, {"measurement": "Appearance", "setting": "[4]; MgCl2 0.01 M, ionic strength 0.03 M, conc. 1.43%", "value": "Clear, thick, stiffer gel"}, {"measurement": "Appearance", "setting": "[4]; MgCl2 0.0117 M, ionic strength 0.035 M, conc. 1.41%", "value": "Clear, thick, stiffer gel"}, {"measurement": "Appearance", "setting": "[4]; MgCl2 0.0133 M, ionic strength 0.04 M, conc. 1.40%", "value": "Slightly cloudy, thick, stiffer gel"}, {"measurement": "Appearance", "setting": "[4]; MgCl2 0.015 M, ionic strength 0.045 M, conc. 1.39%", "value": "Slightly cloudy, stiffer gel"}, {"measurement": "Appearance", "setting": "[4]; MgCl2 0.0167 M, ionic strength 0.05 M, conc. 1.37%", "value": "Slightly cloudy, brittle gel"}, {"measurement": "Appearance", "setting": "[4]; MgCl2 0.0183 M, ionic strength 0.055 M, conc. 1.36%", "value": "Cloudy, phase-separated"}, {"measurement": "Appearance", "setting": "[4]; NaCl 0 M, ionic strength 0 M, conc. 1.5%", "value": "Clear, thick gel"}, {"measurement": "Appearance", "setting": "[4]; NaCl 0.005 M, ionic strength 0.005 M, conc. 1.46%", "value": "Clear, thick, stiffer gel"}, {"measurement": "Appearance", "setting": "[4]; NaCl 0.01 M, ionic strength 0.01 M, conc. 1.43%", "value": "Clear, thick, stiffer gel"}, {"measurement": "Appearance", "setting": "[4]; NaCl 0.015 M, ionic strength 0.015 M, conc. 1.39%", "value": "Clear, thick, stiffer gel"}, {"measurement": "Appearance", "setting": "[4]; NaCl 0.02 M, ionic strength 0.02 M, conc. 1.35%", "value": "Clear, thick, stiffer gel"}, {"measurement": "Appearance", "setting": "[4]; NaCl 0.025 M, ionic strength 0.025 M, conc. 1.31%", "value": "Clear, thick, stiffer gel"}, {"measurement": "Appearance", "setting": "[4]; NaCl 0.03 M, ionic strength 0.03 M, conc. 1.27%", "value": "Slightly cloudy, thick, stiffer gel"}, {"measurement": "Appearance", "setting": "[4]; NaCl 0.035 M, ionic strength 0.035 M, conc. 1.24%", "value": "Slightly cloudy, brittle gel"}, {"measurement": "Appearance", "setting": "[4]; NaCl 0.04 M, ionic strength 0.04 M, conc. 1.2%", "value": "Cloudy, phase-separated"}, {"measurement": "salt ionic strength increase that did not change the clear color, while apparent stiffness increased", "setting": "[4]; depending on different salts, 1.5% peptide solutions", "value": "0.025˜0.035 M"}]}]}
